Series [1] concerns the molecule itself. Kind of series: native gel or EMSA; native PAGE, 10 µg protein per lane (20 µg in Figure S3), 5-20% gradient polyacrylamide gel, 25 mM Tris, 192 mM glycine, Coomassie stain; self-association, no DNA. On the technique in general: A gel shift assay detects complexes by their altered migration in electrophoresis.
Series [2] deals with the molecule itself. Kind of series: SEC; Superdex 200 5/150 GL, 20 mM potassium phosphate pH 6.0, 10 mM MgCl2, 0.15 M NaCl; masses estimated from a calibration curve; self-association, no DNA.

B1: Redβ wild-type (WT) protein from bacteriophage λ (natural protein)
chain: GSHMSTALATLAGKLAERVGMDSVDPQELITTLRQTAFKGDASDAQFIALLIVANQYGLNPWTKEIYAFPDKQNGIVPVVGVDGWSRIINENQQFDGMDFEQDNESCTCRIYRKDRNHPICVTEWMDECRREPFKTREGREITGPWQSHPKRMLRHKAMIQCARLAFGFAGIYDKDEAERIVENTAYTAERQPERDITPVNDETMQEINTLLIALDKTWDDDLLPLCSQIFRRDIRASSELTQAEAVKALGFLKQKAAEQKVAA
notes: three residues (Gly-Ser-His) left before the initial methionine after thrombin removal of the tag; Redβ, recombinase of Enterobacteria phage λ, bet gene amplified from phage λ genomic DNA, in pET14b; Forms multimers; subunit about 30 kDa; also called Redβ WT; source: E. coli BL21(DE3), purified (HisTrap FF, thrombin digestion, HisTrap FF, Benzamidine FF); not shown: His6, N-terminal, cleaved
For the protein B1, in series [1], the binding result was “binds”.

B2: Redβ K172A (natural protein, bacteriophage λ)
chain: GSHMSTALATLAGKLAERVGMDSVDPQELITTLRQTAFKGDASDAQFIALLIVANQYGLNPWTKEIYAFPDKQNGIVPVVGVDGWSRIINENQQFDGMDFEQDNESCTCRIYRKDRNHPICVTEWMDECRREPFKTREGREITGPWQSHPKRMLRHKAMIQCARLAFGFAGIYDADEAERIVENTAYTAERQPERDITPVNDETMQEINTLLIALDKTWDDDLLPLCSQIFRRDIRASSELTQAEAVKALGFLKQKAAEQKVAA
notes: three residues (Gly-Ser-His) left before the initial methionine after thrombin removal of the tag; Redβ, recombinase of Enterobacteria phage λ, alanine substitution mutant; source: E. coli BL21(DE3), purified (HisTrap FF, thrombin digestion, HisTrap FF, Benzamidine FF); not shown: His6, N-terminal, cleaved
For the protein B2, the binding result in series [1] is on record as “binds”.

B3: Redβ K148A (natural protein, bacteriophage λ)
chain: GSHMSTALATLAGKLAERVGMDSVDPQELITTLRQTAFKGDASDAQFIALLIVANQYGLNPWTKEIYAFPDKQNGIVPVVGVDGWSRIINENQQFDGMDFEQDNESCTCRIYRKDRNHPICVTEWMDECRREPFKTREGREITGPWQSHPARMLRHKAMIQCARLAFGFAGIYDKDEAERIVENTAYTAERQPERDITPVNDETMQEINTLLIALDKTWDDDLLPLCSQIFRRDIRASSELTQAEAVKALGFLKQKAAEQKVAA
notes: three residues (Gly-Ser-His) left before the initial methionine after thrombin removal of the tag; Redβ, recombinase of Enterobacteria phage λ, alanine substitution mutant; By gel filtration complexes of approximately 3 subunits; source: E. coli BL21(DE3), purified (HisTrap FF, thrombin digestion, HisTrap FF, Benzamidine FF); not shown: His6, N-terminal, cleaved
With B3, the “stoichiometry N” value in series [2] was roughly 3 subunits.

B4: Redβ Y64A (natural protein, bacteriophage λ)
chain: GSHMSTALATLAGKLAERVGMDSVDPQELITTLRQTAFKGDASDAQFIALLIVANQYGLNPWTKEIAAFPDKQNGIVPVVGVDGWSRIINENQQFDGMDFEQDNESCTCRIYRKDRNHPICVTEWMDECRREPFKTREGREITGPWQSHPKRMLRHKAMIQCARLAFGFAGIYDKDEAERIVENTAYTAERQPERDITPVNDETMQEINTLLIALDKTWDDDLLPLCSQIFRRDIRASSELTQAEAVKALGFLKQKAAEQKVAA
notes: as for B2
As for B4, the binding result in series [2] is on record as “binds”.

B5: Redβ K132A (natural protein, bacteriophage λ)
chain: GSHMSTALATLAGKLAERVGMDSVDPQELITTLRQTAFKGDASDAQFIALLIVANQYGLNPWTKEIYAFPDKQNGIVPVVGVDGWSRIINENQQFDGMDFEQDNESCTCRIYRKDRNHPICVTEWMDECRREPFATREGREITGPWQSHPKRMLRHKAMIQCARLAFGFAGIYDKDEAERIVENTAYTAERQPERDITPVNDETMQEINTLLIALDKTWDDDLLPLCSQIFRRDIRASSELTQAEAVKALGFLKQKAAEQKVAA
notes: as for B2
Take B5: the binding result in series [2] is reported as “binds”.

B6: Redβ R161A (natural protein, bacteriophage λ)
chain: GSHMSTALATLAGKLAERVGMDSVDPQELITTLRQTAFKGDASDAQFIALLIVANQYGLNPWTKEIYAFPDKQNGIVPVVGVDGWSRIINENQQFDGMDFEQDNESCTCRIYRKDRNHPICVTEWMDECRREPFKTREGREITGPWQSHPKRMLRHKAMIQCAALAFGFAGIYDKDEAERIVENTAYTAERQPERDITPVNDETMQEINTLLIALDKTWDDDLLPLCSQIFRRDIRASSELTQAEAVKALGFLKQKAAEQKVAA
notes: as for B2
Consider B6, for which the binding result in series [1] is listed as “binds”.

B7: Redβ K69A (natural protein, bacteriophage λ)
chain: GSHMSTALATLAGKLAERVGMDSVDPQELITTLRQTAFKGDASDAQFIALLIVANQYGLNPWTKEIYAFPDAQNGIVPVVGVDGWSRIINENQQFDGMDFEQDNESCTCRIYRKDRNHPICVTEWMDECRREPFKTREGREITGPWQSHPKRMLRHKAMIQCARLAFGFAGIYDKDEAERIVENTAYTAERQPERDITPVNDETMQEINTLLIALDKTWDDDLLPLCSQIFRRDIRASSELTQAEAVKALGFLKQKAAEQKVAA
notes: as for B2
As to B7, the binding result in series [2] is reported as “binds”.

B8: Redβ V79A (natural protein, bacteriophage λ)
chain: GSHMSTALATLAGKLAERVGMDSVDPQELITTLRQTAFKGDASDAQFIALLIVANQYGLNPWTKEIYAFPDKQNGIVPVVGADGWSRIINENQQFDGMDFEQDNESCTCRIYRKDRNHPICVTEWMDECRREPFKTREGREITGPWQSHPKRMLRHKAMIQCARLAFGFAGIYDKDEAERIVENTAYTAERQPERDITPVNDETMQEINTLLIALDKTWDDDLLPLCSQIFRRDIRASSELTQAEAVKALGFLKQKAAEQKVAA
notes: as for B2
With B8, the binding result in series [2] is listed as “binds”.

B9: Redβ D80A (natural protein, bacteriophage λ)
chain: GSHMSTALATLAGKLAERVGMDSVDPQELITTLRQTAFKGDASDAQFIALLIVANQYGLNPWTKEIYAFPDKQNGIVPVVGVAGWSRIINENQQFDGMDFEQDNESCTCRIYRKDRNHPICVTEWMDECRREPFKTREGREITGPWQSHPKRMLRHKAMIQCARLAFGFAGIYDKDEAERIVENTAYTAERQPERDITPVNDETMQEINTLLIALDKTWDDDLLPLCSQIFRRDIRASSELTQAEAVKALGFLKQKAAEQKVAA
notes: as for B2
In the case of B9, the binding result in series [2] was “binds”.

B10: Redβ G78A (natural protein, bacteriophage λ)
chain: GSHMSTALATLAGKLAERVGMDSVDPQELITTLRQTAFKGDASDAQFIALLIVANQYGLNPWTKEIYAFPDKQNGIVPVVAVDGWSRIINENQQFDGMDFEQDNESCTCRIYRKDRNHPICVTEWMDECRREPFKTREGREITGPWQSHPKRMLRHKAMIQCARLAFGFAGIYDKDEAERIVENTAYTAERQPERDITPVNDETMQEINTLLIALDKTWDDDLLPLCSQIFRRDIRASSELTQAEAVKALGFLKQKAAEQKVAA
notes: as for B2
For the protein B10, the binding result in series [2] is “binds”.

B11: Redβ R149A (natural protein, bacteriophage λ)
chain: GSHMSTALATLAGKLAERVGMDSVDPQELITTLRQTAFKGDASDAQFIALLIVANQYGLNPWTKEIYAFPDKQNGIVPVVGVDGWSRIINENQQFDGMDFEQDNESCTCRIYRKDRNHPICVTEWMDECRREPFKTREGREITGPWQSHPKAMLRHKAMIQCARLAFGFAGIYDKDEAERIVENTAYTAERQPERDITPVNDETMQEINTLLIALDKTWDDDLLPLCSQIFRRDIRASSELTQAEAVKALGFLKQKAAEQKVAA
notes: as for B3
Consider B11, for which the “stoichiometry N” value in series [2] is roughly 3 subunits.

B12: Redβ V77A (natural protein, bacteriophage λ)
chain: GSHMSTALATLAGKLAERVGMDSVDPQELITTLRQTAFKGDASDAQFIALLIVANQYGLNPWTKEIYAFPDKQNGIVPVAGVDGWSRIINENQQFDGMDFEQDNESCTCRIYRKDRNHPICVTEWMDECRREPFKTREGREITGPWQSHPKRMLRHKAMIQCARLAFGFAGIYDKDEAERIVENTAYTAERQPERDITPVNDETMQEINTLLIALDKTWDDDLLPLCSQIFRRDIRASSELTQAEAVKALGFLKQKAAEQKVAA
notes: as for B2
In the case of B12, in series [2], the binding result is “binds”.

B13: Redβ R152A (natural protein, bacteriophage λ)
chain: GSHMSTALATLAGKLAERVGMDSVDPQELITTLRQTAFKGDASDAQFIALLIVANQYGLNPWTKEIYAFPDKQNGIVPVVGVDGWSRIINENQQFDGMDFEQDNESCTCRIYRKDRNHPICVTEWMDECRREPFKTREGREITGPWQSHPKRMLAHKAMIQCARLAFGFAGIYDKDEAERIVENTAYTAERQPERDITPVNDETMQEINTLLIALDKTWDDDLLPLCSQIFRRDIRASSELTQAEAVKALGFLKQKAAEQKVAA
notes: as for B2
For B13, the binding result in series [2] is on record as “binds”.

One may read the stoichiometry N as the number of molecules, sites or subunits per partner or assembly.

The values are drawn from publication PMC3823998, “Structural and Functional Characterization of the Redβ Recombinase from Bacteriophage λ” (PLoS ONE, 2013).
